From PMC10415282, “High resolution cryo-EM and crystallographic snapshots of the actinobacterial two-in-one 2-oxoglutarate dehydrogenase” (Nature Communications, 2023)

B1: Mycobacterium smegmatis KGD, full-length (enzyme, UniProt A0R2B1 1-1227, looked up)
chain: MSSSPSPFGQNEWLVEEMYRKFRDDPSSVDPSWHEFLVDYSPEPTTDSASNGRTTTAAPVTPPTPAPAPAPEPKAAPKPAAKTEAKPAKPAKSATPAKGDESQILRGAAAAVVKNMNASLEVPTATSVRAIPAKLMIDNRVVINNHLKRTRGGKISFTHLLGYAIVQAVKKFPNMNRHFAVVDGKPTAITPAHTNLGLAIDLQGKDGNRSLVVAAIKRCETMRFGQFIAAYEDIVRRARDGKLTAEDFSGVTISLTNPGTLGTVHSVPRLMQGQGAIIGAGAMEYPAEFQGASEERIADLGIGKLITLTSTYDHRIIQGAESGDFLRTIHQLLLDDDFFDEIFRELGIPYEPVRWRTDNPDSIEDKNARVIELIAAYRNRGHLMADIDPLRLDNTRFRSHPDLDVNSHGLTLWDLDREFKVDGFAGVQRKKLRDILSVLRDAYCRHVGVEYTHILEPEQQRWIQERVETKHDKPTVAEQKYILSKLNAAEAFETFLQTKYVGQKRFSLEGAETVIPMMDAVIDQCAEHGLDEVVIAMPHRGRLNVLANIVGKPYSQIFSEFEGNLNPSQAHGSGDVKYHLGATGTYIQMFGDNDIEVSLTANPSHLEAVDPVLEGLVRAKQDLLDTGEEGSDNRFSVVPLMLHGDAAFAGQGVVAETLNLALLRGYRTGGTIHIVVNNQIGFTTAPTDSRSSEYCTDVAKMIGAPIFHVNGDDPEACAWVARLAVDFRQAFKKDVVIDMLCYRRRGHNEGDDPSMTQPYMYDVIDTKRGSRKAYTEALIGRGDISMKEAEDALRDYQGQLERVFNEVRELEKHEIEPSESVEADQQIPSKLATAVDKAMLQRIGDAHLALPEGFTVHPRVRPVLEKRREMAYEGRIDWAFAELLALGSLIAEGKLVRLSGQDTQRGTFTQRHAVIVDRKTGEEFTPLQLLATNPDGTPTGGKFLVYNSALSEFAAVGFEYGYSVGNPDAMVLWEAQFGDFVNGAQSIIDEFISSGEAKWGQLSDVVLLLPHGHEGQGPDHTSGRIERFLQLWAEGSMTIAMPSTPANYFHLLRRHGKDGIQRPLIVFTPKSMLRNKAAVSDIRDFTESKFRSVLEEPMYTDGEGDRNKVTRLLLTSGKIYYELAARKAKENREDVAIVRIEQLAPLPRRRLAETLDRYPNVKEKFWVQEEPANQGAWPSFGLTLPEILPDHFTGLKRISRRAMSAPSSGSSKVHAVEQQEILDTAFG
notes: KGD (two-in-one 2-oxoglutarate dehydrogenase, E2o and E1o domains on one chain), Mycobacterium smegmatis, full-length protein; Crystallised with 2 mM ThDP and 5 mM MgCl2; also called MsKGD; mycobacterial KGD; source: E. coli BL21(DE3)pLysS, purified as previously described
B2: Corynebacterium glutamicum OdhA, full-length (residues 1-1221) (enzyme, Corynebacterium glutamicum ATCC13032, UniProt Q8NRC3 1-1221, looked up)
chain: MSSASTFGQNAWLVDEMFQQFQKDPKSVDKEWRELFEAQGGPNTTPATTEAQPSAPKESAKPAPKAAPAAKAAPRVETKPADKTAPKAKESSVPQQPKLPEPGQTPIRGIFKSIAKNMDISLEIPTATSVRDMPARLMFENRAMVNDQLKRTRGGKISFTHIIGYAMVKAVMAHPDMNNSYDVIDGKPTLIVPEHINLGLAIDLPQKDGSRALVVAAIKETEKMNFSEFLAAYEDIVARSRKGKLTMDDYQGVTVSLTNPGGIGTRHSVPRLTKGQGTIIGVGSMDYPAEFQGASEDRLAELGVGKLVTITSTYDHRVIQGAVSGEFLRTMSRLLTDDSFWDEIFDAMNVPYTPMRWAQDVPNTGVDKNTRVMQLIEAYRSRGHLIADTNPLSWVQPGMPVPDHRDLDIETHNLTIWDLDRTFNVGGFGGKETMTLREVLSRLRAAYTLKVGSEYTHILDRDERTWLQDRLEAGMPKPTQAEQKYILQKLNAAEAFENFLQTKYVGQKRFSLEGAEALIPLMDSAIDTAAGQGLDEVVIGMPHRGRLNVLFNIVGKPLASIFNEFEGQMEQGQIGGSGDVKYHLGSEGQHLQMFGDGEIKVSLTANPSHLEAVNPVMEGIVRAKQDYLDKGVDGKTVVPLLLHGDAAFAGLGIVPETINLAKLRGYDVGGTIHIVVNNQIGFTTTPDSSRSMHYATDYAKAFGCPVFHVNGDDPEAVVWVGQLATEYRRRFGKDVFIDLVCYRLRGHNEADDPSMTQPKMYELITGRETVRAQYTEDLLGRGDLSNEDAEAVVRDFHDQMESVFNEVKEGGKKQAEAQTGITGSQKLPHGLETNISREELLELGQAFANTPEGFNYHPRVAPVAKKRVSSVTEGGIDWAWGELLAFGSLANSGRLVRLAGEDSRRGTFTQRHAVAIDPATAEEFNPLHELAQSKGNNGKFLVYNSALTEYAGMGFEYGYSVGNEDSIVAWEAQFGDFANGAQTIIDEYVSSGEAKWGQTSKLILLLPHGYEGQGPDHSSARIERFLQLCAEGSMTVAQPSTPANHFHLLRRHALSDLKRPLVIFTPKSMLRNKAAASAPEDFTEVTKFQSVINDPNVADAAKVKKVMLVSGKLYYELAKRKEKDGRDDIAIVRIEMLHPIPFNRISEALAGYPNAEEVLFVQDEPANQGPWPFYQEHLPELIPNMPKMRRVSRRAQSSTATGVAKVHQLEEKQLIDEAFEA
notes: OdhA (E2o succinyltransferase and E1o 2-oxoglutarate decarboxylase domains on one chain), C. glutamicum ATCC13032, Uniprot Q8NRC3, residues 1-1221; TEV site (ENLYFQG) between the vector's His6-tag and the N-terminus; In the maps the chain is traced from Pro102; also called corynebacterial OdhA; source: E. coli BL21(DE3), purified (Ni-NTA, TEV cleavage, SEC); not shown: His6, N-terminal, cleaved
B3: Corynebacterium glutamicum OdhI (residues 1-143) (natural protein, Corynebacterium glutamicum ATCC13032, UniProt Q8NQJ3 1-143, looked up)
chain: MSDNNGTPEPQVETTSVFRADLLKEMESSTGTAPASTGAENLPAGSALLVVKRGPNAGARFLLDQPTTTAGRHPESDIFLDDVTVSRRHAEFRINEGEFEVVDVGSLNGTYVNREPRNAQVMQTGDEIQIGKFRLVFLAGPAE
notes: In the map only the FHA domain (Glu40-Ala142) is traceable; source: E. coli BL21(DE3), purified (Ni-NTA, TEV cleavage, SEC); not shown: His6, N-terminal, cleaved
B4: OdhAΔ97 (C. glutamicum OdhA residues 98-1221) (domain or fragment, Corynebacterium glutamicum ATCC13032, UniProt Q8NRC3 98-1221, looked up)
chain: KLPEPGQTPIRGIFKSIAKNMDISLEIPTATSVRDMPARLMFENRAMVNDQLKRTRGGKISFTHIIGYAMVKAVMAHPDMNNSYDVIDGKPTLIVPEHINLGLAIDLPQKDGSRALVVAAIKETEKMNFSEFLAAYEDIVARSRKGKLTMDDYQGVTVSLTNPGGIGTRHSVPRLTKGQGTIIGVGSMDYPAEFQGASEDRLAELGVGKLVTITSTYDHRVIQGAVSGEFLRTMSRLLTDDSFWDEIFDAMNVPYTPMRWAQDVPNTGVDKNTRVMQLIEAYRSRGHLIADTNPLSWVQPGMPVPDHRDLDIETHNLTIWDLDRTFNVGGFGGKETMTLREVLSRLRAAYTLKVGSEYTHILDRDERTWLQDRLEAGMPKPTQAEQKYILQKLNAAEAFENFLQTKYVGQKRFSLEGAEALIPLMDSAIDTAAGQGLDEVVIGMPHRGRLNVLFNIVGKPLASIFNEFEGQMEQGQIGGSGDVKYHLGSEGQHLQMFGDGEIKVSLTANPSHLEAVNPVMEGIVRAKQDYLDKGVDGKTVVPLLLHGDAAFAGLGIVPETINLAKLRGYDVGGTIHIVVNNQIGFTTTPDSSRSMHYATDYAKAFGCPVFHVNGDDPEAVVWVGQLATEYRRRFGKDVFIDLVCYRLRGHNEADDPSMTQPKMYELITGRETVRAQYTEDLLGRGDLSNEDAEAVVRDFHDQMESVFNEVKEGGKKQAEAQTGITGSQKLPHGLETNISREELLELGQAFANTPEGFNYHPRVAPVAKKRVSSVTEGGIDWAWGELLAFGSLANSGRLVRLAGEDSRRGTFTQRHAVAIDPATAEEFNPLHELAQSKGNNGKFLVYNSALTEYAGMGFEYGYSVGNEDSIVAWEAQFGDFANGAQTIIDEYVSSGEAKWGQTSKLILLLPHGYEGQGPDHSSARIERFLQLCAEGSMTVAQPSTPANHFHLLRRHALSDLKRPLVIFTPKSMLRNKAAASAPEDFTEVTKFQSVINDPNVADAAKVKKVMLVSGKLYYELAKRKEKDGRDDIAIVRIEMLHPIPFNRISEALAGYPNAEEVLFVQDEPANQGPWPFYQEHLPELIPNMPKMRRVSRRAQSSTATGVAKVHQLEEKQLIDEAFEA
notes: OdhA, C. glutamicum ATCC13032, Uniprot Q8NRC3, residues 98-1221 (without the flexible N-terminal segment); Crystallised with 5 mM CoASH; source: E. coli BL21(DE3), purified (Ni-NTA, TEV cleavage, SEC); not shown: His6, N-terminal, cleaved

What was measured:
OdhA = target: T1, OdhA (Corynebacterium glutamicum, UniProt Q8NRC3); experiment: cryo-EM structure, […] Å; type: binding
T1 construct: full length residues 1-1221, E. coli BL21(DE3), N-terminal His6-TEV tag cleaved for cryo-EM (OdhA-His6 kept for SPR); homohexamer, ~800 kDa

OdhAΔ97 = target: T2, OdhAΔ97 (Corynebacterium glutamicum, UniProt Q8NRC3); experiment: crystal structure, […] Å; type: binding; conditions: co-crystallised with 5 mM CoASH, pH 7.5; E2o acceptor site; pantothenate chain not traced
T2 construct: gene odhA; N-terminal truncation, residues 98-1221, E. coli BL21(DE3), His6-TEV tag cleaved; homohexamer

[1] = target: the molecule itself; experiment: crystal structure; MsKGD (10 mg/ml, 2 mM ThDP, 5 mM MgCl2) co-crystallised with GarA at 1:1 molar ratio; 0.1 M bicine pH 8.0, 30% PEG550MME, 0.2 M NaCl; 4.6 Å
[2] = target: the molecule itself; experiment: AUC; sedimentation velocity, 20 °C, 30,000 rpm, seven concentrations from 4 mg/ml to 0.0625 mg/ml, 20 mM Hepes pH 7.5, 500 mM NaCl
[3] = target: B2; experiment: cryo-EM structure; single particle, OdhA incubated with OdhI at molar ratio 1:10, then SEC (Superose 6 increase, 20 mM Hepes pH 7.5, 500 mM NaCl); D3 symmetry; 2.3 Å; conditions: both partners purified
[4] = target: the molecule itself; experiment: crystal structure; OdhAΔ97 (26 mg/ml) with 5 mM CoASH; 0.1 M Hepes-NaOH pH 7.5, 5% PEG 4000, 30% MPD; 2.5 Å; protomers related by crystallographic symmetry

Molecule: CC(C)(COP(=O)(O)OP(=O)(O)OC[C@H]1O[C@@H](n2cnc3c(N)ncnc32)[C@H](O)[C@@H]1OP(=O)(O)O)[C@@H](O)C(=O)NCCC(=O)NCCS [CoASH]
cryo-EM structure, 2.2 Å (OdhA; E2o active site, out conformation, ThDP-Mg and acetyl-CoA also bound): the OdhA-CoASH complex shows the bound CoASH with the pantothenate chain not entering
crystal structure, 2.46 Å (OdhAΔ97): we could model CoASH, which was added to the cocrystallization mixture, as bound

Molecule: CC(=O)SCCNC(=O)CCNC(=O)[C@H](O)C(C)(C)COP(=O)(O)OP(=O)(O)OC[C@H]1O[C@@H](n2cnc3c(N)ncnc32)[C@H](O)[C@@H]1OP(=O)(O)O [acetyl-CoA]
cryo-EM structure, 2.2 Å (OdhA; allosteric, E1o domain pocket, no ligand added (co-purified from E. coli), activated conformation): show an acetyl-CoA molecule bound to E1o allosteric site which could be positioned unambiguously

Molecule: B1
stoichiometry N [1]: 6

Molecule: B2
stoichiometry N [2]: 6

Molecule: B3
stoichiometry N [3]: 1

Molecule: B4
stoichiometry N [4]: 6
